B1: Retinoblastoma-associated protein (Homo sapiens), P06400 (parent)
chain: MPPKTPRKTAATAAAAAAEPPAPPPPPPPEEDPEQDSGPEDLPLVRLEFEETEEPDFTALCQKLKIPDHVRERAWLTWEKVSSVDGVLGGYIQKKKELWGICIFIAAVDLDEMSFTFTELQKNIEISVHKFFNLLKEIDTSTKVDNAMSRLLKKYDVLFALFSKLERTCELIYLTQPSSSISTEINSALVLKVSWITFLLAKGEVLQMEDDLVISFQLMLCVLDYFIKLSPPMLLKEPYKTAVIPINGSPRTPRRGQNRSARIAKQLENDTRIIEVLCKEHECNIDEVKNVYFKNFIPFMNSLGLVTSNGLPEVENLSKRYEEIYLKNKDLDARLFLDHDKTLQTDSIDSFETQRTPRKSNLDEEVNVIPPHTPVRTVMNTIQQLMMILNSASDQPSENLISYFNNCTVNPKESILKRVKDIGYIFKEKFAKAVGQGCVEIGSQRYKLGVRLYYRVMESMLKSEEERLSIQNFSKLLNDNIFHMSLLACALEVVMATYSRSTSQNLDSGTDLSFPWILNVLNLKAFDFYKVIESFIKAEGNLTREMIKHLERCEHRIMESLAWLSDSPLFDLIKQSKDREGPTDHLESACPLNLPLQNNHTAADMYLSPVRSPKKKGSTTRVNSTANAETQATSAFQTQKPLKSTSLSLFYKKVYRLAYLRLNTLCERLLSEHPELEHIIWTLFQHTLQNEYELMRDRHLDQIMMCSMYGICKVKNIDLKFKIIVTAYKDLPHAVQETFKRVLIKEEEYDSIIVFYNSVFMQRLKTNILQYASTRPPTLSPIPHIPRSPYKFPSSPLRIPGGNIYISPLKSPYKISEGLPTPTKMTPRSRILVSIGESFGTSEKFQKINQMVCNSDRVLKRSAEGSNPPKPLKKLRFDIEGSDEADGSKHLPGESKFQQKLAEMTSTRTRMQKQKMNDSMDTSNKEEK

Columns and labels:
[1] = variants of: B1; details: with e2f1_human E2F1, Q01094
e2f1_human E2F1, Q01094, sequence (Q01094 whole entry): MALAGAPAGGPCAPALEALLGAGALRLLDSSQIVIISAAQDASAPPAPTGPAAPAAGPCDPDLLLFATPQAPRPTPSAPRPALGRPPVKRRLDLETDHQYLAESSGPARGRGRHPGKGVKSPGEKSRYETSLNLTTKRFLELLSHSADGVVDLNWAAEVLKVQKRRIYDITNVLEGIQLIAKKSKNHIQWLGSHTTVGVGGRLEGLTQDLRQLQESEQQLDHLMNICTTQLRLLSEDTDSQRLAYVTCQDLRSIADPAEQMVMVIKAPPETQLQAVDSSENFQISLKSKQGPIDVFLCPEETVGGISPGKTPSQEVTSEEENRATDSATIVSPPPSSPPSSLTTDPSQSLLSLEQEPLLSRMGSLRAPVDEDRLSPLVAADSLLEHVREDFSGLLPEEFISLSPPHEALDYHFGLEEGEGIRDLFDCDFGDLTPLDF

[2] = variants of: B1; details: with ve7_hpv16 E7, P03129
ve7_hpv16 E7, P03129, sequence (P03129 whole entry): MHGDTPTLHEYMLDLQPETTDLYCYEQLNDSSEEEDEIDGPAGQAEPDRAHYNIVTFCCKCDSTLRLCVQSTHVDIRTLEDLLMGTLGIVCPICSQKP

[3] = variants of: B1; details: with e2f1_human E2F1, Q01094; remark: listed apart in the source
[4] = variants of: B1; details: with ve7_hpv16 E7, P03129; remark: listed apart in the source

## T664A
[1]
  effect of a mutation on the interaction: decreasing interaction strength
[2]
  effect of a mutation on the interaction: decreasing interaction strength

## T638S
[1]
  effect of a mutation on the interaction: with no effect
[3]
  effect of a mutation on the interaction: decreasing interaction strength
[2]
  effect of a mutation on the interaction: decreasing interaction strength

## A488V
[1]
  effect of a mutation on the interaction: decreasing interaction strength
[2]
  effect of a mutation on the interaction: decreasing interaction strength

## V754G
[1]
  effect of a mutation on the interaction: decreasing interaction strength
[2]
  effect of a mutation on the interaction: decreasing interaction strength

## R621P
[1]
  effect of a mutation on the interaction: decreasing interaction strength
[2]
  effect of a mutation on the interaction: decreasing interaction strength

## S612P
[1]
  effect of a mutation on the interaction: decreasing interaction strength
[2]
  effect of a mutation on the interaction: decreasing interaction strength

## Q444R
[1]
  effect of a mutation on the interaction: decreasing interaction strength
[2]
  effect of a mutation on the interaction: decreasing interaction strength

## S751C
[1]
  effect of a mutation on the interaction: decreasing interaction strength
[3]
  effect of a mutation on the interaction: disrupting interaction strength
[2]
  effect of a mutation on the interaction: decreasing interaction strength

## D604G
[1]
  effect of a mutation on the interaction: decreasing interaction strength
[2]
  effect of a mutation on the interaction: decreasing interaction strength

## R656W
[1]
  effect of a mutation on the interaction: decreasing interaction strength
[2]
  effect of a mutation on the interaction: decreasing interaction strength

## H585Y
[1]
  effect of a mutation on the interaction: decreasing interaction strength
[2]
  effect of a mutation on the interaction: decreasing interaction strength

## S648T
[1]
  effect of a mutation on the interaction: decreasing interaction strength
[2]
  effect of a mutation on the interaction: decreasing interaction strength

## A490T
[1]
  effect of a mutation on the interaction: decreasing interaction strength
[3]
  effect of a mutation on the interaction: disrupting interaction strength
[2]
  effect of a mutation on the interaction: decreasing interaction strength

## R668C
[1]
  effect of a mutation on the interaction: increasing interaction strength
[3]
  effect of a mutation on the interaction: decreasing interaction strength
[2]
  effect of a mutation on the interaction: increasing interaction strength
[4]
  effect of a mutation on the interaction: decreasing interaction strength

## R668H
[1]
  effect of a mutation on the interaction: increasing interaction strength
[3]
  effect of a mutation on the interaction: with no effect
[2]
  effect of a mutation on the interaction: decreasing interaction strength

## P595L
[1]
  effect of a mutation on the interaction: decreasing interaction strength
[2]
  effect of a mutation on the interaction: decreasing interaction strength

## R741C
[1]
  effect of a mutation on the interaction: decreasing interaction strength
[2]
  effect of a mutation on the interaction: decreasing interaction strength

## R741H
[1]
  effect of a mutation on the interaction: decreasing interaction strength
[2]
  effect of a mutation on the interaction: decreasing interaction strength

## E539D
[1]
  effect of a mutation on the interaction: decreasing interaction strength
[3]
  effect of a mutation on the interaction: disrupting interaction strength
[2]
  effect of a mutation on the interaction: decreasing interaction strength

## R451C
[1]
  effect of a mutation on the interaction: decreasing interaction strength
[2]
  effect of a mutation on the interaction: decreasing interaction strength

## H686Y
[1]
  effect of a mutation on the interaction: decreasing interaction strength
[2]
  effect of a mutation on the interaction: with no effect
[4]
  effect of a mutation on the interaction: decreasing interaction strength

## D584Y
[1]
  effect of a mutation on the interaction: decreasing interaction strength
[2]
  effect of a mutation on the interaction: decreasing interaction strength

## S534R
[1]
  effect of a mutation on the interaction: disrupting interaction strength
[2]
  effect of a mutation on the interaction: increasing interaction strength
[4]
  effect of a mutation on the interaction: decreasing interaction strength

## M761L
[1]
  effect of a mutation on the interaction: decreasing interaction strength
[2]
  effect of a mutation on the interaction: increasing interaction strength

## K462E
[1]
  effect of a mutation on the interaction: decreasing interaction strength
[2]
  effect of a mutation on the interaction: decreasing interaction strength

## R763T
[1]
  effect of a mutation on the interaction: decreasing interaction strength
[2]
  effect of a mutation on the interaction: decreasing interaction strength

## M704V
[1]
  effect of a mutation on the interaction: decreasing interaction strength
[3]
  effect of a mutation on the interaction: disrupting interaction strength
[2]
  effect of a mutation on the interaction: decreasing interaction strength

## S588F
[1]
  effect of a mutation on the interaction: decreasing interaction strength
[2]
  effect of a mutation on the interaction: with no effect
[4]
  effect of a mutation on the interaction: decreasing interaction strength

## S443L
[1]
  effect of a mutation on the interaction: decreasing interaction strength
[2]
  effect of a mutation on the interaction: decreasing interaction strength

## V654L
[1]
  effect of a mutation on the interaction: decreasing interaction strength
[2]
  effect of a mutation on the interaction: decreasing interaction strength

Source: IntAct's records for PubMed 39938803
